Experimental data reported in patent US20240116985A1, “STAPLED PEPTIDES AND METHODS THEREOF” (priority 2020, published 2024).
Starred links: 1 amine or outer side, 2 acyl side, 3 side chain; linkers in the order of their positions; H or OH if unused. Positions of bridges follow the written chain, without caps; N, C: chain ends. Non-standard residues stand in square brackets, D forms with d. Primed or numbered codes have the meaning given here. *: point of attachment. PyrS2″ = (S)-3-amino-1-((pent-4-en-1-yloxy)carbonyl)pyrrolidine-3-carboxylic acid (stapling residue), C=CCCCOC(=O)N1CC[C@@](N[*:1])(C(=O)[*:2])C1; B5(32) = 2-amino-2-(pent-4-en-1-yl)hept-6-enoic acid (bis-4-pentenylglycine, two alkene side chains), C=CCCCC(CCCC=C)(N[*:1])C(=O)[*:2]; B5(4) = 2,2-bis(4-pentenyl)glycine = 2-amino-2-(pent-4-en-1-yl)hept-6-enoic acid (stitching residue), C=CCCCC(CCCC=C)(N[*:1])C(=O)[*:2]; PyrS2 = (S)-3-amino-1-((pent-4-en-1-yloxy)carbonyl)pyrrolidine-3-carboxylic acid, C=CCCCOC(=O)N1CC[C@@](N[*:1])(C(=O)[*:2])C1; 3Br4FF = (S)-2-amino-3-(3-bromo-4-fluorophenyl)propanoic acid, O=C([C@H](Cc1ccc(F)c(Br)c1)N[*:1])[*:2]; B5(3) = 2,2-bis(4-pentenyl)glycine (stitching residue), C=CCCCC(CCCC=C)(N[*:1])C(=O)[*:2]; B5 = 2-amino-2-(pent-4-en-1-yl)hept-6-enoic acid, C=CCCCC(CCCC=C)(N[*:1])C(=O)[*:2]; Phe(3-COOH) = N[C@@H](Cc1cccc(C(=O)O)c1)C(=O)O; Phe(2-CF3) = N[C@@H](Cc1ccccc1C(F)(F)F)C(=O)O; Phe(3,4-Me2) = Cc1ccc(C[C@H](N)C(=O)O)cc1C; Phe(2-Cl) = N[C@@H](Cc1ccccc1Cl)C(=O)O; Bta = N[C@@H](Cc1csc2ccccc12)C(=O)O; αAllylPro = C=CC[C@@]1(C(=O)O)CCCN1; tBuAla = CC(C)(C)C[C@H](N)C(=O)O; 3Thi = N[C@@H](Cc1ccsc1)C(=O)O; Aib = CC(C)(N)C(=O)O; BrAc = O=C(CBr)*

Each binder was assayed against full-length beta-Catenin (Uniprot ID P35222) (Homo sapiens (Human)) (UniProt P35222) (assay: fluorescence polarization competition; full-length beta-catenin, 5FAM-TCF4(10-53) probe).
Target sequence in this assay (P35222 2-781 limits assumed): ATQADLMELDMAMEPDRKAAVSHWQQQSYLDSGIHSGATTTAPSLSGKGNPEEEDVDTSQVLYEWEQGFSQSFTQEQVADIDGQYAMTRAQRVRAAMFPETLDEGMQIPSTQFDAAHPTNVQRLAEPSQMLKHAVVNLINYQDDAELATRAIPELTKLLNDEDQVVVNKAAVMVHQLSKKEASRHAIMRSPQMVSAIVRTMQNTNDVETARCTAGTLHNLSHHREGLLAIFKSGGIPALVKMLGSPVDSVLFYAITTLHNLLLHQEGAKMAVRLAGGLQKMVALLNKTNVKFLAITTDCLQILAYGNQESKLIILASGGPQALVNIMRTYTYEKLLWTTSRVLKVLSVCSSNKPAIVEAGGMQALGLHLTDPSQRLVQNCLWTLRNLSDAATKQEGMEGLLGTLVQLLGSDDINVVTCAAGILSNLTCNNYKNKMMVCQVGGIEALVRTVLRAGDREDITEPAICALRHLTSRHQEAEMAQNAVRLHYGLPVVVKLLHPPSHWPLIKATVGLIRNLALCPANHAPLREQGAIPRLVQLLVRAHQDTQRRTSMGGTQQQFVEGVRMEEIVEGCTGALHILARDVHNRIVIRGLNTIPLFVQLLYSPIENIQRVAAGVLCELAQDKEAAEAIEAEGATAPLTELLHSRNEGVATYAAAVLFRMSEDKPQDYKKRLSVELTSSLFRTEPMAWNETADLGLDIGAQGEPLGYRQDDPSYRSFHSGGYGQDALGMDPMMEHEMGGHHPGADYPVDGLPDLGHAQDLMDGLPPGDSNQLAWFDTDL
An IC50 of 310 nM was found for Ac-[αAllylPro]D[tBuAla][B5]NTAAFN[PyrS2][3Thi][Bta]H-NH2 (staple 1-4, 4-11; also: later eluting HPLC isomer) [I-2141] in this work.
An IC50 of 2020 nM was found for Ac-[αAllylPro]D[tBuAla][B5]NTAAFT[PyrS2][3Thi][Bta]F-NH2 (staple 1-4, 4-11; also: earlier eluting HPLC isomer) [I-2144] in this work.
An IC50 of 1010 nM was found for Ac-[αAllylPro]D[tBuAla][B5(3)]NTAAFN[PyrS2″][3Thi][Bta]W-NH2 (staple 1-4, 4-11; also: earlier eluting HPLC isomer) [I-2138] in this work.
An IC50 of 233 nM was found for Ac-[αAllylPro]D[tBuAla][B5]NTAAFN[PyrS2][3Thi][Bta]H-NH2 (staple 1-4, 4-11; also: earlier eluting HPLC isomer) [I-2140] in this work.
An IC50 of 970 nM was found for Ac-[αAllylPro]D[tBuAla][B5]NTAAFN[PyrS2][3Thi][Bta]W-NH2 (staple 1-4, 4-11; also: later eluting HPLC isomer) [I-2139] in this work.
An IC50 of 217 nM was found for Ac-[αAllylPro]D[tBuAla][B5]NTAAFN[PyrS2][3Thi][Bta]A-NH2 (staple 1-4, 4-11; also: later eluting HPLC isomer) [I-2143] in this work.

What follows are binders tested against full-length beta-Catenin (Uniprot ID P35222) (Homo sapiens (Human)) (UniProt P35222) (assay: fluorescence polarization competition; full-length beta-catenin, competitor probe 5FAM-TCF4(10-53)).
Target sequence in this assay (P35222 whole entry): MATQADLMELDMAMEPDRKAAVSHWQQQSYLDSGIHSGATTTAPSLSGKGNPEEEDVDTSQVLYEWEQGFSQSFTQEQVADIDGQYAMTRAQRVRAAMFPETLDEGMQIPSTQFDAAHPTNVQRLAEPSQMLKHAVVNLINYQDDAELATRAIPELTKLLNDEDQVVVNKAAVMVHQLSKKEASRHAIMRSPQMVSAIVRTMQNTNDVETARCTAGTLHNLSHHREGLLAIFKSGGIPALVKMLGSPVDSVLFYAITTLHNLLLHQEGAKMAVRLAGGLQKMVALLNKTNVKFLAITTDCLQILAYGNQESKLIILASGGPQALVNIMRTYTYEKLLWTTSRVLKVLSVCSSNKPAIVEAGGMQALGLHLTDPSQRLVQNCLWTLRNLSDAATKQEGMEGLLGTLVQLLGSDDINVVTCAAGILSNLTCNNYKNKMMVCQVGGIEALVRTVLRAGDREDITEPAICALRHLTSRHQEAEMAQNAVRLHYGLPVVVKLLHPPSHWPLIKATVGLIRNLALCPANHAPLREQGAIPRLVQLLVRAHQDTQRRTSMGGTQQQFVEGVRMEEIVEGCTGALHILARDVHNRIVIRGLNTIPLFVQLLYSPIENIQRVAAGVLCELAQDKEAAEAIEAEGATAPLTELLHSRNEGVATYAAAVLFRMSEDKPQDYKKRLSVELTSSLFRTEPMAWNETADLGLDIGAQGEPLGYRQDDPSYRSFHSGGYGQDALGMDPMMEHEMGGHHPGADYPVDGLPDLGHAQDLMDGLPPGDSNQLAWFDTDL
An IC50 of 10 nM was found for Ac-[αAllylPro]D[tBuAla][B5(3)]D[Phe(3-COOH)]AAFL[PyrS2″][3Thi][Bta]NL-NH2 (staple 1-4, 4-11) [I-2274] in this work.
An IC50 of 88 nM was found for BrAc-[αAllylPro]D[tBuAla][B5(4)]D[Phe(3-COOH)]AAFL[PyrS2][Phe(2-Cl)][Bta]A-NH2 (staple 1-4, 4-11) [I-2286] in this work.
An IC50 of 40 nM was found for Ac-[αAllylPro]D[tBuAla][B5(3)]D[Phe(3-COOH)]AAFL[PyrS2″][3Thi][Bta]NAAAAAAAAA-NH2 (staple 1-4, 4-11) [I-2270] in this work.
An IC50 of 14 nM was found for Ac-[αAllylPro]D[tBuAla][B5(4)]D[Phe(3-COOH)]QAFL[PyrS2][Phe(2-CF3)][3Br4FF]A-NH2 (staple 1-4, 4-11) [I-2290] in this work.
An IC50 of 7 nM was found for Ac-[αAllylPro]D[tBuAla][B5(4)]D[Phe(3-COOH)]AAFL[PyrS2][3Thi][3Br4FF]Q-NH2 (staple 1-4, 4-11) [I-2287] in this work.
An IC50 of 15 nM was found for Ac-[αAllylPro]D[tBuAla][B5(4)]D[Phe(3-COOH)]AAFL[PyrS2][Phe(2-CF3)][Phe(3,4-Me2)]S-NH2 (staple 1-4, 4-11) [I-2293] in this work.
An IC50 of 8 nM was found for Ac-[αAllylPro]D[tBuAla][B5(4)]D[Phe(3-COOH)]AAFL[PyrS2][Phe(2-CF3)][3Br4FF]S-NH2 (staple 1-4, 4-11) [I-2289] in this work.
An IC50 of 138 nM was found for Ac-[αAllylPro]D[tBuAla][B5(4)]D[Phe(3-COOH)]AAFL[PyrS2][3Thi][Bta]NALALA-NH2 (staple 1-4, 4-11; also: earlier eluting staple isomer) [I-2281] in this work.
An IC50 of 117 nM was found for Ac-[αAllylPro]D[tBuAla][B5(32)]D[Phe(3-COOH)]AAFL[PyrS2][3Thi][Bta]NLLL-NH2 (staple 1-4, 4-11; also: earlier eluting staple isomer (HPLC peak)) [I-2275] in this work.
An IC50 of 20 nM was found for Ac-[αAllylPro]D[tBuAla][B5(3)]D[Phe(3-COOH)]AAFL[PyrS2″][3Thi][Bta]NAAAAAAA-NH2 (staple 1-4, 4-11) [I-2269] in this work.
An IC50 of 158 nM was found for Ac-[αAllylPro]D[tBuAla][B5(32)]D[Phe(3-COOH)]AAFL[PyrS2][3Thi][Bta]NLLL-NH2 (staple 1-4, 4-11; also: later eluting staple isomer (HPLC peak)) [I-2276] in this work.
An IC50 of 43 nM was found for Ac-[αAllylPro]D[tBuAla][B5(3)]D[Phe(3-COOH)]AAFL[PyrS2″][3Thi][Bta]NA[Aib]A[Aib]A-NH2 (staple 1-4, 4-11) [I-2272] in this work.
An IC50 of 2680 nM was found for Ac-[αAllylPro]D[tBuAla][B5(4)]D[Phe(3-COOH)]AAFL[PyrS2][3Thi][Bta]NALALALA-NH2 (staple 1-4, 4-11; also: later eluting staple isomer) [I-2284] in this work.
An IC50 of 107 nM was found for Ac-[αAllylPro]D[tBuAla][B5(3)]D[Phe(3-COOH)]AAFL[PyrS2″][3Thi][Bta]NA[Aib]A[Aib]A[Aib]A-NH2 (staple 1-4, 4-11) [I-2273] in this work.
An IC50 of 2860 nM was found for Ac-[αAllylPro]D[tBuAla][B5(4)]D[Phe(3-COOH)]AAFL[PyrS2][3Thi][Bta]NALALALA-NH2 (staple 1-4, 4-11; also: earlier eluting staple isomer) [I-2283] in this work.
An IC50 of 156 nM was found for Ac-[αAllylPro]D[tBuAla][B5(4)]D[Phe(3-COOH)]AAFL[PyrS2][3Thi][Bta]NALALA-NH2 (staple 1-4, 4-11; also: later eluting staple isomer) [I-2282] in this work.
An IC50 of 114 nM was found for Ac-[αAllylPro]D[tBuAla][B5(32)]D[Phe(3-COOH)]AAFL[PyrS2][3Thi][Bta]NALL-NH2 (staple 1-4, 4-11; also: earlier eluting staple isomer) [I-2277] in this work.
An IC50 of 94 nM was found for BrAc-[αAllylPro]D[tBuAla][B5(32)]DDAAFQ[PyrS2][3Thi][Bta]H-NH2 (staple 1-4, 4-11) [I-2285] in this work.
An IC50 of 120 nM was found for Ac-[αAllylPro]D[tBuAla][B5(32)]D[Phe(3-COOH)]AAFL[PyrS2][3Thi][Bta]NALL-NH2 (staple 1-4, 4-11; also: later eluting staple isomer) [I-2278] in this work.
An IC50 of 5 nM was found for Ac-[αAllylPro]D[tBuAla][B5(4)]D[Phe(3-COOH)]AAFL[PyrS2][3Thi][Phe(3,4-Me2)]Q-NH2 (staple 1-4, 4-11) [I-2291] in this work.
